Test results published in patent US11202830B2, “Human immunodeficiency virus therapies utilizing N332-glycan-dependent antibodies in subjects with low viral loads” (priority 2013, dated 2021).

Legend:
SHIV-SF162P3 [1] = assay: Antibody infusion in rhesus monkeys chronically infected with SHIV-SF162P3: plasma viral RNA; format: in vivo, rhesus monkeys (Macaca mulatta)
From the text: (§1) Groups were balanced for susceptible and resistant TRIM5α alleles (Lim et al., PLoS Pathog. 6: e1000738, 2010; Letvin et al., Sci Transl Med. 3: 81 ra36, 2011). Animals infected by the intrarectal route with our rhesus-derived SHIV-SF162P3 challenge stock for 9 months prior to antibody administration were utilized for the studies. […] 3BNC117 was manufactured by Celldex Therapeutics in CHO cells and purified by chromatography and sterile filtration. All the antibody preparations were endotoxin free. Cocktails of antibodies or single antibodies were administered to monkeys once or twice by the intravenous route at a dose of 10 mg/kg for each antibody. Monkeys were bled up to three times per week for viral loads. All animal studies were approved by the appropriate Institutional Animal Care and Use Committee (IACUC).
To evaluate the therapeutic potential of broad and potent HIV-1-specific antibodies in nonhuman primates, we infused cocktails of antibodies, as well as single antibodies, in chronically SHIV-infected rhesus monkeys.
We next investigated the therapeutic efficacy of a single infusion of the cocktail of three antibodies as well as a combination of only two antibodies. […] Viral rebound occurred in the majority of animals between day 28 and day 84 (FIGS. 2A and 2B) and was associated with declines of serum antibody titers to undetectable levels (FIGS. 2E and 2F).
It is generally believed that a combination of antibodies directed against multiple epitopes will be required for virologic control (Klein et al., Nature. 492: 118-122, 2012; Poignard et al., Immunity. 10: 431-438, 1999; Trkola et al., Nat Med. 11: 615-622, 2005; Diskin et al., J Exp Med. 210:1235-1249, 2013). However, the current extraordinarily potent and broad antibodies have not previously been evaluated in nonhuman primates with intact immune systems.

[2] = test system: SHIV-SF162P3 proviral DNA; assay: Proviral DNA assay (PBMC, lymph node, gastrointestinal mucosa) after antibody infusion; format: in vivo, rhesus monkeys (Macaca mulatta); conditions: day 14 after single infusion 10 mg/kg
From the text: as §1
Lymph node and gastrointestinal mucosal biopsies were processed as single cell suspensions essentially as previously described (Li et al., J Virol 85: 11007-11015, 2011). Tissue-specific proviral DNA was quantitated as previously reported (Whitney et al., J Virol. 83: 10840-10843, 2009). Total cellular DNA was isolated from 5×10^6 cells using a QIAamp DNA Blood Mini kit (Qiagen). The absolute quantification of viral DNA in each sample was determined by qPCR using primers specific to a conserved region SIVmac239. All samples were directly compared to a linear virus standard and the simultaneous amplification of a fragment of human GAPDH gene. The sensitivity of linear standards was compared against the 3D8 cell line as a reference standard as described (Whitney et al., J Virol. 83: 10840-10843, 2009). All PCR assays were performed with 100 and 200 ng of sample DNA.

clade C viruses = conditions: cited from earlier work
SHIV-SF162P3 [3] = assay: Sensitivity of SHIV-SF162P3 to 3BNC117; format: cell-based

B1: PGT121: N332 glycan-dependent antibody; CDRs SEQ ID NO: 1-6, VH SEQ ID NO: 7, VL SEQ ID NO: 8 (antibody, V domains shown)
VH: QMQLQESGPGLVKPSETLSLTCSVSGASISDSYWSWIRRSPGKGLEWIGYVHKSGDTNYSPSLKSRVNLSLDTSKNQVSLSLVAATAADSGKYYCARTLHGRRIYGIVAFNEWFTYFYMDVWGNGTQVTVSS
VL: SDISVAPGETARISCGEKSLGSRAVQWYQHRAGQAPSLIIYNNQDRPSGIPERFSGSPDSPFGTTATLTITSVEAGDEADYYCHIWDSRVPTKWVFGGGTTLTVL
- no evidence of viral rebound for (SHIV-SF162P3 [1]; baseline <3.5 log RNA copies/ml, monkeys 4905 and DN1G): over 100 days
- time virtually undetectable viral RNA was maintained after treatment (SHIV-SF162P3 [1]; one infusion on day 0, n=3): at least 15 days
- viral RNA after treatment (SHIV-SF162P3 [1]; one infusion on day 0, n=3): virtually undetectable levels of viral RNA within days of treatment
- virologic suppression compared to 10-1074, 3BNC117, or VRC07-523 (SHIV-SF162P3 [1]; one infusion on day 0, n=3): extremely potent virologic suppression
- animals with rapid virologic control to undetectable levels by day 7 (SHIV-SF162P3 [1]; single i.v. infusion day 0, 10 mg/kg of each antibody): 4 of 4
- outcome in one animal (monkey DN1G) (SHIV-SF162P3 [1]; single infusion 10 mg/kg): long-term virologic control
- reduction of proviral DNA in lymph nodes vs DEN3 control ([2]; P=0.05): 4 fold
- reduction of proviral DNA in peripheral blood vs DEN3 control ([2]; P=0.05): 6 fold
- reduction of proviral DNA in gastrointestinal mucosa vs DEN3 control ([2]; P=0.1): 4 fold
- clade C viruses covered (clade C viruses): approximately 70%

B2: 3BNC117: CD4bs-specific antibody; light chain SEQ ID NO: 257, heavy chain SEQ ID NO: 258 (antibody, listed as Homo sapiens)
heavy: QVQLLQSGAAVTKPGASVRVSCEASGYNIRDYFIHWWRQAPGQGLQWVGWINPKTGQPNNPRQFQGRVSLTRHASWDFDTFSFYMDLKALRSDDTAVYFCARQRSDYWDFDVWGSGTQVTVSS
light: DIQMTQSPSSLSASVGDTVTITCQANGYLNWYQQRRGKAPKLLIYDGSKLERGVPSRFSGRRWGQEYNLTINNLQPEDIATYFCQVYEFVVPGTRLDLKRTVA
- transient reduction of plasma viral loads (SHIV-SF162P3 [1]; single infusion 10 mg/kg): 0.2-1.1 log
- sensitivity of the SHIV-SF162P3 challenge stock (SHIV-SF162P3 [3]; applicant's rhesus-derived challenge stock): largely resistant
- sensitivity of the cloned SHIV-SF162P3 pseudovirus (SHIV-SF162P3 [3]; cloned pseudovirus): highly sensitive
